What all share (test): holdup assay
Holding throughout (parameters): key: below the threshold = too weak to quantify, mostly under pKd 3.1 to 4
What all share (conditions): plain residues with an end cap or a label only (N-terminal biotin on a linker: gsgsgs; C-terminal amide)

In assay [1] the target is AHNAK1, Q09666.
For assay [2], the target named is GRIP2_3, Q9C0E4.
The target of assay [3] is T1, MPDZ_10, O75970.
T1 sequence (O75970 1624-1722, limits assumed, looked up): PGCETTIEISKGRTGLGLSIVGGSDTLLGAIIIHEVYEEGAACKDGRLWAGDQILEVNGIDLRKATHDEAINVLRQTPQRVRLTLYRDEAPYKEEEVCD

Assay [4] concerns the target Inadl_4, Q8NI35.
Assay [5] concerns the target T2, LNX2_2, Q8N448.
T2 sequence (Q8N448 334-432, limits assumed, looked up): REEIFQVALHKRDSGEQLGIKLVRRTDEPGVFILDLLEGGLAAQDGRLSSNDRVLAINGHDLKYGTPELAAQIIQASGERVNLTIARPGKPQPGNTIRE

Assay [6] has as its target T3, SIPA1L2, Q9P2F8.
T3 sequence (Q9P2F8 945-1036, limits assumed, looked up): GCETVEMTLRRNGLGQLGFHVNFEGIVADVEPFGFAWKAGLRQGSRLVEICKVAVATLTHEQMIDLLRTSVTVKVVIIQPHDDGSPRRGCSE

Assay [7] concerns the target T4, TJP3_3, O95049.
T4 sequence (O95049 375-456, limits assumed, looked up): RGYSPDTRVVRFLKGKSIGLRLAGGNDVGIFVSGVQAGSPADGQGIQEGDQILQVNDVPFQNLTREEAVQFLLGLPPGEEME

Assay [8] deals with HTRA2, O43464.
Chain of HTRA2, O43464 (O43464 355-458): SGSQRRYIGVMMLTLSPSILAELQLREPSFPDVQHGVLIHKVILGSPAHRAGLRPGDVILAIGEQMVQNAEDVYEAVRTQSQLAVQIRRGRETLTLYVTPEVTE
The target in assay [9] is T5, SNTA1, Q13424.
T5 sequence (Q13424 82-180, limits assumed, looked up): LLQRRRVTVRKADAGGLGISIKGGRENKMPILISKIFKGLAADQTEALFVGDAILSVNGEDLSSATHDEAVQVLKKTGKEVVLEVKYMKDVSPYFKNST

For assay [10], the target named is T6, MPP6, Q9NZW5.
T6 sequence (Q9NZW5 125-219, limits assumed, looked up): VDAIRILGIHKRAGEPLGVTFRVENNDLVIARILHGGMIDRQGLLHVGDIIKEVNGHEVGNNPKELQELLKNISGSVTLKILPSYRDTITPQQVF

For assay [11], the target named is T7, CARD11, Q9BXL7.
T7 sequence (Q9BXL7 662-765, limits assumed, looked up): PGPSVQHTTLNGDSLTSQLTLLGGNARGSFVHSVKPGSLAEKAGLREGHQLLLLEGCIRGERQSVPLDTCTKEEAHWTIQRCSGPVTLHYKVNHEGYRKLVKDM

The target of assay [12] is T8, GRIP1_5, Q9Y3R0.
T8 sequence (Q9Y3R0 568-668, limits assumed, looked up): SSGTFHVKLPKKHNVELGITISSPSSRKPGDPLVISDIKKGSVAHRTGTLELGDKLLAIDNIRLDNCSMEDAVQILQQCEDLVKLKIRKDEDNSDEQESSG

Assay [13] has as its target T9, GRIP1_3, Q9Y3R0.
T9 sequence (Q9Y3R0 247-346, limits assumed, looked up): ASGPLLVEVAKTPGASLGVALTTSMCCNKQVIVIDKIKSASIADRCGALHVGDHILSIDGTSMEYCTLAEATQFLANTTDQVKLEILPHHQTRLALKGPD

The target in assay [14] is GRIP2_5, Q9C0E4.
Chain of GRIP2_5, Q9C0E4 (Q9C0E4 544-642): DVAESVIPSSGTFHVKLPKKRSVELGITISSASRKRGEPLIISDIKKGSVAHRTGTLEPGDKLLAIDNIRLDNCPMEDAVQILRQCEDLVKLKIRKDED
For assay [15], the target named is T10, TX1BP3, O14907.
T10 sequence (O14907 10-122, limits assumed, looked up): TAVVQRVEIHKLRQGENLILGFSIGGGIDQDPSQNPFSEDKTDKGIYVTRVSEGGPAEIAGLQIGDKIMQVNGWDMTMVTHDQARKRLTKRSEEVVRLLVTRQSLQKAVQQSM

Assay [16] addresses GORASP2, Q9H8Y8.
The target in assay [17] is T11, DFNB31_2, Q9P202.
T11 sequence (Q9P202 274-371, limits assumed, looked up): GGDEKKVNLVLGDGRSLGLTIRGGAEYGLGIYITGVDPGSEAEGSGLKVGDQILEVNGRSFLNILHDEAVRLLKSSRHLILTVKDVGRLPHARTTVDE

Assay [18] concerns the target T12, APBA1_1, Q02410.
T12 sequence (Q02410 651-752, limits assumed, looked up): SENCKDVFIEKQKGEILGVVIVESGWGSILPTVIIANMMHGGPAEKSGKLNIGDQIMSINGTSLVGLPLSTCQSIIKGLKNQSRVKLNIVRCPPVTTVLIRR

Assay [19] deals with DLG2_3, Q15700.
In assay [20] the target is T13, GRIP1_2, Q9Y3R0.
T13 sequence (Q9Y3R0 145-248, limits assumed, looked up): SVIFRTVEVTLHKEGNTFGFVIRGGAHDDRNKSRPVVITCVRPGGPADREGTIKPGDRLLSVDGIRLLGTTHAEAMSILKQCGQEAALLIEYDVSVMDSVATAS

Assay [21] addresses T14, PTPN13_1, Q12923.
T14 sequence (Q12923 1088-1188, limits assumed, looked up): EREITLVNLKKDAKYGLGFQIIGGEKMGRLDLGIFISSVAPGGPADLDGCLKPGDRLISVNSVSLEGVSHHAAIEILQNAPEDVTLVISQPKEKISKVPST

Assay [22] deals with TJP1_2, Q07157.
Chain of TJP1_2, Q07157 (Q07157 181-274): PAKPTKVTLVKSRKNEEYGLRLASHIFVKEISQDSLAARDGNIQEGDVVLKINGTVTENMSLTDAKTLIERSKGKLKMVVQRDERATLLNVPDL

Among the data in PMC9482650, “Quantitative fragmentomics allow affinity mapping of interactomes” (Nature Communications, 2022) are pKd values, retold here.

Chain of Inadl_4, Q8NI35 (Q8NI35 547-651): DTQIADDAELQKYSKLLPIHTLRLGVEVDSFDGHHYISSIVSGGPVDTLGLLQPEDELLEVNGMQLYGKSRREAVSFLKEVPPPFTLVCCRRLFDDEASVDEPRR
Chain of AHNAK1, Q09666 (Q09666 4-100): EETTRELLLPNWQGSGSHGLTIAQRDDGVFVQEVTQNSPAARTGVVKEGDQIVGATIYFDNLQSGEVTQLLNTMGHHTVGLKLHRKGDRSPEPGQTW
Chain of GRIP2_3, Q9C0E4 (Q9C0E4 238-339): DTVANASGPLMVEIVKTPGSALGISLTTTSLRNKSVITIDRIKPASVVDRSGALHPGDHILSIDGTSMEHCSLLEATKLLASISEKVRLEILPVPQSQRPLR

In general, pKd refers to the negative decadic logarithm of the Kd, by convention in mol/L. As to VSVDDVRSTSQGLSSY [DFNB31_int, Q9P202], the negative-log Kd (pKd) result in assay [1], in [2], in [3], in assay [4], in [5] and in assay [6] was “below the threshold” in each case. The pKd entry in [7] was “below the threshold”; in assay [8], “below the threshold”; in assay [9], “below the threshold”; in assay [10], 3.65; in [11] it was “below the threshold”; in assay [12], “below the threshold”. For the same molecule, the pKd result in assay [13], in assay [14], in [15], in assay [16], in assay [17] and in [18] was “below the threshold” each time. Moreover, the pKd is 3.55 in assay [19], “below the threshold” in assay [20], “below the threshold” in [21] and “below the threshold” in [22].
